From paper PMC10172140

Columns and labels:
[1] = molecular target: BRIL-wt-KOR(54–368) reconstituted into nanodiscs (human) (UniProt P41145)
[2] = molecular target: κ-opioid receptor in homogenous membrane fractions expressing KOR (human) (UniProt P41145)
KOR R156^3.50A (human) = KOR R156^3.50A (human) (UniProt P41145)
KOR N336^8.49A (human) = KOR N336^8.49A (human) (UniProt P41145)

wild-type Gg (gustducin) heterotrimeric G protein (from UniProt A8MTJ3 1-354; P62873 1-340; P59768 1-71) (complex)
fold increase of the high-affinity binding sites (Bmax) for the agonist radioligand ^3H-U69,593 in saturation binding, with 1 μM G protein against KOR alone [1]: 7 fold | efficacy of GR89,696-mediated Gg activation, BRET2, normalized to U50,488 [2]: 103% | efficacy of momSalB-mediated Gg activation, BRET2, normalized to U50,488 [2]: 106% | efficacy of GR89,696-mediated Gg activation, BRET2, normalized to U50,488 (KOR R156^3.50A (human)): 46% | efficacy of momSalB-mediated Gg activation, BRET2, normalized to U50,488 (KOR R156^3.50A (human)): 38%

wild-type Gi1 heterotrimeric G protein (from UniProt P63096 1-354; P62873 1-340; P59768 1-71) (complex)
fold increase of the high-affinity binding sites (Bmax) for the agonist radioligand ^3H-U69,593 in saturation binding, with 1 μM G protein against KOR alone [1]: 62 fold | loss in potency of agonist-mediated Gi1 coupling against wild-type KOR, BRET2 (KOR N336^8.49A (human)): 2 fold

wild-type GoA heterotrimeric G protein (from UniProt P09471 1-354; P62873 1-340; P59768 1-71) (complex)
fold increase of the high-affinity binding sites (Bmax) for the agonist radioligand ^3H-U69,593 in saturation binding, with 1 μM G protein against KOR alone [1]: 38 fold | loss in potency of agonist-mediated GoA coupling against wild-type KOR, BRET2 (KOR N336^8.49A (human)): 14 fold

wild-type Gz heterotrimeric G protein (from UniProt P19086 1-355; P62873 1-340; P59768 1-71) (complex)
fold increase of the high-affinity binding sites (Bmax) for the agonist radioligand ^3H-U69,593 in saturation binding, with 1 μM G protein against KOR alone [1]: 14 fold | loss in potency of agonist-mediated Gz coupling against wild-type KOR, BRET2 (KOR N336^8.49A (human)): 9 fold
